Tests used:
h CD22-His (human) = h CD22-His (human) (UniProt P20273); experiment: BLI (Fortebio)
CD22-his (human) = CD22-his (human) (UniProt P20273); experiment: ELISA

Kd (h CD22-His (human)): 0.86 nM
EC50 (CD22-his (human)): 0.195 nM
Substance: M971
